Assay results taken from IntAct's records for PubMed 35115020.

B1: Palmitoyltransferase ZDHHC5 (Homo sapiens), Q9C0B5 (parent)
chain: MPAESGKRFKPSKYVPVSAAAIFLVGATTLFFAFTCPGLSLYVSPAVPIYNAIMFLFVLANFSMATFMDPGIFPRAEEDEDKEDDFRAPLYKTVEIKGIQVRMKWCATCRFYRPPRCSHCSVCDNCVEEFDHHCPWVNNCIGRRNYRYFFLFLLSLTAHIMGVFGFGLLYVLYHIEELSGVRTAVTMAVMCVAGLFFIPVAGLTGFHVVLVARGRTTNEQVTGKFRGGVNPFTNGCCNNVSRVLCSSPAPRYLGRPKKEKTIVIRPPFLRPEVSDGQITVKIMDNGIQGELRRTKSKGSLEITESQSADAEPPPPPKPDLSRYTGLRTHLGLATNEDSSLLAKDSPPTPTMYKYRPGYSSSSTSAAMPHSSSAKLSRGDSLKEPTSIAESSRHPSYRSEPSLEPESFRSPTFGKSFHFDPLSSGSRSSSLKSAQGTGFELGQLQSIRSEGTTSTSYKSLANQTRNGSLSYDSLLTPSDSPDFESVQAGPEPDPPLGYTSPFLSARLAQQREAERHPRLVPTGPTHREPSPVRYDNLSRHIVASLQEREKLLRQSPPLPGREEEPGLGDSGIQSTPGSGHAPRTSSSSDDSKRSPLGKTPLGRPAVPRFGKPDGLRGRGVGSPEPGPTAPYLGRSMSYSSQKAQPGVSETEEVALQPLLTPKDEVQLKTTYSKSNGQPKSLGSASPGPGQPPLSSPTRGGVKKVSGVGGTTYEISV

Variants of: B1
Settings: with spike_sars2 S

Row | Variant | effect of a mutation on the interaction
1 | C134S | with no effect
